# Target: XPO1 (human) (human) (UniProt O14980)
# Assay: other fluorescence titration; competition differential bleaching: MBP-NES competes with the probe FITC-NESPKI for XPO1, in the presence of excess RanGTP (GSP1 179ter, Q71L); analysed in PALMIST
# Sequence of UniProt O14980 (O14980 whole entry): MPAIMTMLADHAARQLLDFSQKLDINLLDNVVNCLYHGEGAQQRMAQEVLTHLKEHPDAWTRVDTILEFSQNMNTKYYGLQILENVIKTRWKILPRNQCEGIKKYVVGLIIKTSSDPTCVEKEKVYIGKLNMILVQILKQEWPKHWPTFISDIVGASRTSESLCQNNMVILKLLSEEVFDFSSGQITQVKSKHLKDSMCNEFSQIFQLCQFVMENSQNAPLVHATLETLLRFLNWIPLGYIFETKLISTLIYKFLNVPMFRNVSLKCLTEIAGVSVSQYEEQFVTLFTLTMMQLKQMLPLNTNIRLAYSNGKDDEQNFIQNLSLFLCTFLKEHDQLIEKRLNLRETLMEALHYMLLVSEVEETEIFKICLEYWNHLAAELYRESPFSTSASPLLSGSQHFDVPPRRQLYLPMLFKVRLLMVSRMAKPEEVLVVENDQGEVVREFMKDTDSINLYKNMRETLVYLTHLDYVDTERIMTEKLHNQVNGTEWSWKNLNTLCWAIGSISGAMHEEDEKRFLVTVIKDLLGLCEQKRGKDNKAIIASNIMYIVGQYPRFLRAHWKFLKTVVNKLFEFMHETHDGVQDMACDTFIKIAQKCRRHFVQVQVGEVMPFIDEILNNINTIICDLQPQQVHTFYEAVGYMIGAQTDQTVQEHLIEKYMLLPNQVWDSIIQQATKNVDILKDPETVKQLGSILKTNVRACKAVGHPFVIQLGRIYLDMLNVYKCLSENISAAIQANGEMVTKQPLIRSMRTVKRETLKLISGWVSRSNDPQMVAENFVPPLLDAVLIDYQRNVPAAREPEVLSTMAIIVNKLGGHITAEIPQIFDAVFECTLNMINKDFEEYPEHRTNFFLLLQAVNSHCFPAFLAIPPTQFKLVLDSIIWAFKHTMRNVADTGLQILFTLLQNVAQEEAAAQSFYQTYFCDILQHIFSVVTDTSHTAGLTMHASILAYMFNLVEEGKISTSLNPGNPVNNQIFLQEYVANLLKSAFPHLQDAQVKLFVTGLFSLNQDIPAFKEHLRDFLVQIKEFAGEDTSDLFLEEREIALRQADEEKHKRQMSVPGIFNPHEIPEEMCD
substance,measurement,value
"MBP-NESTDP (maltose binding protein fused to the putative NES peptide of TDP-43, residues 236-253)",Kd,13 µM
